Assay results: the DeepSol protein solubility set

Experiment: soluble on expression in E. coli; label from the status in PepcDB or PDB records
For “GPGSMAHEHGNEFAGPGGGNGGNGGNVMLQCVKQHTDLSHIEDLGSQISAGAGCCGFSREAHGKRGQDLWLQLPLGTQVVDMDTNEVQYDMDEEGMQIVLLEGGQGGKGNAAFANKWHHSPIESTKGLPGNTMLAQIELKTIADCGLIGYPNAGKSSLLSAISASKPTIAPYAFTTLRPYVGVLHDLYGNVCRVADIPGLIEGAYENRGLGHQFLRHVERTKCLALVVDMCNTYVPDTGLRNSSEVLQPWDVVELLLQELEYYLPGMSQRVIMTFANKMDIEKDSTGTATQVKLSELKRRVSMPVFPISAALGIHLGPQHEQTGLAPALQFMCGEVFARQSQEREMRQFRFSHERAQLERAFRAKHNGVFLPQVHALGAHGAEASQDLDDEAADRGGSLVDQQLDFLGNSGLGVKFDAYENSAARGQLHRYRDLTMKGKYWNLTRQDGEVMKGEKWS”, the “soluble on expression in E. coli” value was “not soluble”.
For “GPGSMAIPPLRASDLSSPSPSIAPQRERTRSVGTRLRTSITRDDAERVLPASSSQVETLARDATTTCEQQLMQEEELCGPSYREVEGRRPSRALSPSGAGDTSGVEDGGRARGREYVEDSDDEDVYNSHVARRIRAFLDSIKAEDFTRNPSPVDVTGMAANGEGIDEEALRQQWLERATVDEARSIAAEAQRELLIVLHDAITLETDLAEMSEDAAVLERAVNHREETVEMLKMQLSIADEYNEELHGAKKEALRKLSDAKTEIALLSQRNATLSKQLHEKEKALQLSLARSASASARTSPPAAERRDEGTITTAELQSALIAATASTGLPNNGSLSTPSSPAQHGECELKGMLRKLQLVCDTLQSTVTAKADLDQQLRQWTMGVGESRADAAACGSASSDAGISQPHGERCAPTDAEQRLLRRRCEDVARCIDSLENDIRMLRAKVRAQQACTDAVEGGSAGRRRSAAEAEAATRPQPVETPGPASASATLPEGPGGSGGCAEPADSNLAFLQRQLDRAQADARRLESELRAEREKSQRQSAAEKKLLENVAYLTRKLRAREALDREARLQRRGEKGGTHGDGGDTADGRRTLLYPHRFSHGDSAGVRRGASTAAGDVCGEGAPTSALRRVNREADAVGMGAATAAARKGRANSQELRQRRESVFAALRDAQRASDERRSSHVVSDTRRSSDVQTSFSPILPTSSSRDAALKASGNAVKSGTRATTPTLTPSRG”, the “soluble on expression in E. coli” value was “not soluble”.
With “GPGSMAKRDKRRTSLVQQNFDSLKRFYAISPFAAAERATLPPVYSGVYSRRAAMNSYHVVGSSRDQIVLEAMRTFTPSVCTKEVMDLYLEVAALVSLYFDTKEQLLALPDV” the “soluble on expression in E. coli” value was “not soluble”.
For “GPGSMASKKQADGSKDIGDAAWREKLTTQEYRVLRQKATDPPFGAYNTHFETGTYHCAGCGTLLYKSSMKFPCECGWPAFFDCVPLAVREEPDSDGVRTEILCNACGGHLGHVFRGEGFNNPPPNERHCVNGTAIRFQSEK”, the “soluble on expression in E. coli” value was “soluble”.
In the case of “GPGSMAVPDDNAEEVELLLSISPEVVCRDPTHSSTLVFLLPFRFVLHVTLPPRGYPDVSRPSLFVAAGPNAHLVNQFSSQLNKALREEVPLGGPMLLHIFTLAQDIATELQRTREAEAQEAKARREAMESEAQLALAEREASSVEVWASDAITDRKSKFVAHMARVDSEAAVREVVMHLRSQKHIAEAAHPTIYAYRFTDSSGVVHHDSDDDGETGAASRIMFLLEQMKVDGYVVVVTRWFGGVLLGPDRFKHIMEVARSILLTIPQREKERGVRDWQDRQ”, the “soluble on expression in E. coli” value is reported as “soluble”.
For “GPGSMDAIHILKENALRLVSAGQPISALHLVEVLCELQPDSDENRSLKIRCLYELREFDSVLKLAKQVTFACDQNSEVFLLAVKAAFELGDLKTCVQYAMTLINADSSKVVAMCFVAKAAELSGDPAKAVRFYKMALEADPFCGEAFSALTERHLLDRWEMLKLIDSLCIPAEVEVYRSTLKARIGSDYLTPGISGVPRTLVLLAGAKKEYESNNLRQALSLTTEILEVEPYHRQTLCLHLCILVDSKATPLLFEKAHFLSKNKCYTELAVYAIGCFYYSLSNYERAGRYFSRASELDCYFAEAWVAYGHCYAKLEEGEQALNVYRRTMNFFPGLNACCTYVGMQYSRVNQRSVARCFFEESLRKNSIDPLVLNELGVLALAEDNPKQALELFQKAYDSLPNRENPSEHSDCILFNLATMYRKLGRYEAAIDYYNQYVRSRPNASHGHCALGFTYHLSGNIKAAISCYHTAESIKPDSFCRDLLRRALELDFGACGRLSWDSERPHLSFSPGEVSFSTVSRRFRSESTAADSVAASPPPRVGRSLDFQHQ”, the “soluble on expression in E. coli” value was “not soluble”.
